The results in this text go back to patent publication US20260184815A1 (published 2026).

In this experiment the target is T1, human plasma kallikrein (human, UniProt P03952 20-390; P03952 391-638).
T1 construct: also called pKal; Human pKal
In words: ELISA, biotinylated pKal signal over streptavidin background. The text has this: Abbreviations used: “T/B” is the ELISA signal obtained using of the “target” (biotinylated plasma kallikrein) divided by the ELISA signal of the “background” (streptavidin); both of which were coated on microtiter plates, “nd” is not determined. The symbol “q” refers to the amber suppressible stop codon (TAG), which is translated as glutamine (Q) in strains of E. coli such as the TG1 cells that were used to express the Fab fragments.
(In an ELISA, binding on a coated surface is turned into a signal by an enzyme label.)

T1 sequence (P03952 20-390, chain 1 of 2): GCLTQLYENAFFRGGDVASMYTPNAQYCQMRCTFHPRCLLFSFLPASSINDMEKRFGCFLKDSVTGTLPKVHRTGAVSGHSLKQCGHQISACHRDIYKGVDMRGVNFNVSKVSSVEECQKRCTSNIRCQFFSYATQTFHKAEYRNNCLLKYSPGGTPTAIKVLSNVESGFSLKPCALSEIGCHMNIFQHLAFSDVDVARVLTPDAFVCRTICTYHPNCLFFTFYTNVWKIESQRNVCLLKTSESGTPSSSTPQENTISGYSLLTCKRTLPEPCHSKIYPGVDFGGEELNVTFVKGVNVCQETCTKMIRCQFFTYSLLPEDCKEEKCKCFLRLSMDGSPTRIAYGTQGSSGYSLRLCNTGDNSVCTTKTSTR
T1 sequence (P03952 391-638, chain 2 of 2): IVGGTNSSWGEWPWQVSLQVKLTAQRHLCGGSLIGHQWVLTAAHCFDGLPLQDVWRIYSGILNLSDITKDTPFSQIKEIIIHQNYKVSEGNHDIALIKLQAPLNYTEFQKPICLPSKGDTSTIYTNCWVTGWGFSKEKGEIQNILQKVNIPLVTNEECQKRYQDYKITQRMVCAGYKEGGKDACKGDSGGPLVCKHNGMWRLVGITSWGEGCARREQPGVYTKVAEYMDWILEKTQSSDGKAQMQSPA

B1: M9-F08 (Fab, V domains shown)
VH: EVQLLESGGGLVQPGGSLRLSCAASGFTFSPYAMTWVRQAPGKGLEWVSVIYPSGGFTDYADSVKGRFTISRDNSKNTLYLQMNSLRAEDTAMYYCARASGSYLDAFDIWGQGTMVTVSS
VL: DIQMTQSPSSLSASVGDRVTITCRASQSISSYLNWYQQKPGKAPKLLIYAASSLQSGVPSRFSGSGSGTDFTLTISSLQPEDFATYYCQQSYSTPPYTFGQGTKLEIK
notes: HC as printed runs into CH1; LC amber q (QMTqSPS) written as Q
Take B1: the “ELISA (T/B)” value came out at 10.9 T/B.

B2: M9-D08 (Fab, V domains shown)
VH: EVQLLESGGGLVQPGGSLRLSCAASGFTFSWYKMMWVRQAPGKGLEWVSSIYPSGGWTNYADSVKGRFTISRDNSKNTLYLQMNSLRAEDTAVYYCTRGSPWGDDAFDIWGQGTMVTVSS
VL: DIQMTQSPSSLSASVGDRVTLTCRASRTISFYLNWYQQKAGKAPELLIYGGSSLHSGVPSRFSGSGSGTDFSLTISNLQPEDIAVYYCQQSFSSPWTFGQGTKVEIK
notes: HC as printed runs into CH1
As for B2, the “ELISA (T/B)” value was 35.9 T/B.

B3: M11-E01 (Fab, V domains shown)
VH: EVQLLESGGGLVQPGGSLRLSCAASGFTFSTYEMYWVRQAPGKGLEWVSGIGSSGGMTMYADSVKGRFTISRDNSKNTLYLQMNSLRAEDTAMYYCAREQPGIAALQFWGQGTLVTVSS
VL: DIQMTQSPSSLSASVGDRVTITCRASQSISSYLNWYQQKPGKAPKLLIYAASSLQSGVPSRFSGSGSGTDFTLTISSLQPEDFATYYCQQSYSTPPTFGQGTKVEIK
notes: HC as printed runs into CH1
Turning to B3, the “ELISA (T/B)” value was determined as 11.7 T/B.

B4: M10-C11 (Fab, V domains shown)
VH: EVQLLESGGGLVQPGGSLRLSCAASGFTFSMYPMMWVRQAPGKGLEWVSYISPSGGMTDYADSVKGRFTISRDNSKNTLYLQMNSLRAEDMAVYYCARVAGSSDAFDIWGQGTMVTVSS
VL: DIQMTQSPSSLSASVGDRVTITCRASQSISIYLNWYQQKPEKAPKLLIFAASTLQSGVPSRFSGSGSGTDFTLTISNLQPEDFATYYCQQSHSIPPTFGLGTKVEVK
notes: HC as printed runs into CH1
Take B4: the “ELISA (T/B)” value was 5.3 T/B.

B5: M10-G09 (Fab, V domains shown)
VH: EVQLLESGGGLVQPGGSLRLSCAASGFTFSQYGMQWVRQAPGKGLEWVSSIRSSGGATRYADSVKGRFTISRDNSKNTLYLQMNSLRAEDTAVYYCARDGYYDSSGYPDYWGQGTLVTVSS
VL: DIQMTQSPSSLSASVGDSVTITCRASQSISGYINWYQQKAGKAPKLLIYAASSLQSGVPSRFSGSGSGTHFTLTISSLQPEDFATYYCQQYVSYPFTFGPGTKVDIK
notes: HC as printed runs into CH1
B5: the “ELISA (T/B)” value came out at 7.1 T/B.

B6: M9-C10 (Fab, V domains shown)
VH: EVQLLESGGGLVQPGGSLRLSCAASGFTFSLYPMQWVRQAPGKGLEWVSSIGSSGGMTFYADSVKGRFTISRDNSKNTLYLQMNSLRAEDTAVYYCTREVGAAGFAFDIWGQGTMVTVSS
VL: DIQMTQSPSSLSASVGDRVTITCRASQGISSYLNWYQQKPGNAPNLLIYGASSLQSGVPSRFSGSGSGTDFTLTISSLQPEDFATYYCQESYSTLFTFGPGTTVEIK
notes: HC as printed runs into CH1
Regarding B6, the “ELISA (T/B)” value was determined as 7.8 T/B.

B7: M9-H02 (Fab, V domains shown)
VH: EVQLLESGGGLVQPGGSLRLSCAASGFTFSAYMMIWVRQAPGKGLEWVSVIYPSGGVTMYADSVKGRFTISRDNSKNTLYLQMNSLRAEDTAVYYCARGTVGASDAFDIWGQGTMVTVSS
VL: DIQMTQSPSSLSASVGDRVIITCRASRSIATYLNWYQQKPGKAPNLLIFGASTLQSGVPSRFSGSGSGTDFTLTISDLQPEDFATYYCQQSFSDPYTFGQGTNLEMK
notes: HC as printed runs into CH1
Consider B7, for which the “ELISA (T/B)” value was determined as 3.5 T/B.

B8: M9-H03 (Fab, V domains shown)
VH: EVQLLESGGGLVQPGGSLRLSCAASGFTFSWYSMGWVRQAPGKGLEWVSYIVPSGGYTMYADSVKGRFTISRDNSKNTLYLQMNSLRAEDTAVYYCARDPGVSYYYYGMDVWGQGTTVTVSS
VL: QYELTQAPSVSVAPGQTASITCSGDKLGNRYTSWYQQKPGQSPVLVIFQDNKRPSGIPERFSGSNSGNTATLTISGTQAMDEADYYCQALDSNTYVFGTGTKVTVL
notes: HC as printed runs into CH1
B8: the “ELISA (T/B)” value was 4.4 T/B.

B9: M10-A12 (Fab, V domains shown)
VH: EVQLLESGGGLVQPGGSLRLSCAASGFTFSLYLMHWVRQAPGKGLEWVSSIYSSGGFTTYADSVKGRFTISRDNSKNTLYLQMNSLRAEDTAVYYCARDTDYGMDVWGQGTTVTVSS
VL: DIQMTQSPLSLSAFVGDRVTITCRASRDISVYLNWYQLKSGKAPKLLIYGASSLQSGVPSRFSGSGSGTDFTLTITSLQPEDFATYYCQQSYSIPFTFGGGTKVETK
notes: HC as printed runs into CH1
Turning to B9, the “ELISA (T/B)” value is 20.8 T/B.

B10: M11-E05 (Fab, V domains shown)
VH: EVQLLESGGGLVQPGGSLRLSCAASGFTFSWYTMGWVRQAPGKGLEWVSWIYFGGLTTYADSVKGRFTISRDNSKNTLYLQMNSLRAEDTAVYYCARLGGPLDAFDIWGQGTMVTVSS
VL: DIQMTQSPSSLSASVGDTVTITCRTSQTINNYLNWYQQRPGEAPKVLIYATHTLESGVPSRFSGSGSGTDFTLTIGSLQPEDFATYYCQQSFAFPYTFGQGTKVEIT
notes: HC as printed runs into CH1
Regarding B10, the “ELISA (T/B)” value amounted to 41.4 T/B.

B11: M11-E04 (Fab, V domains shown)
VH: EVQLLESGGGLVQPGGSLRLSCAASGFTFSMYHMNWVRQAPGKGLEWVSGIVSSGGVTFYADSVKGRFTISRDNSKNTLYLQMNSLRAEDTAVYYCARITTVTTGGAFDIWGQGTMVTVSS
VL: DIQMTQSPSSLSASVGDRVTITCRASQSISIYLTWYQHRPGKAPNLLIYGAATLQTGVPSRFSGSGSGTDFTLTIRGLQPEDFATYYCQQTFSLPRTFGQGTKLEIK
notes: HC as printed runs into CH1
B11: the “ELISA (T/B)” value is 43.2 T/B.

B12: M9-F10 (Fab, V domains shown)
VH: EVQLLESGGGLVQPGGSLRLSCAASGFTFSDYDMEWVRQAPGKGLEWVSSISPSGGSTIYADSVKGRFTISRDNSKNTLYLQMNSLRAEDTAVYYCARQGLLTAFDIWGQGTMVTVSS
VL: DIQMTQSPSSLSASVGDRVTITCRASQSINTYLNWYQQKPGKAPKVLIHAASTLESGVPSRFSGSGSGTDFTLTISSLQPEDFATYYCQQSYSTPYTFGQGTKLEVR
notes: HC as printed runs into CH1
Regarding B12, the “ELISA (T/B)” value worked out at 8.4 T/B.

B13: M10-B09 (Fab, V domains shown)
VH: EVQLLESGGGLVQPGGSLRLSCAASGFTFSWYEMSWVRQAPGKGLEWVSRIWPSGGVTMYADSVKGRFTISRDNSKNTLYLQMNSLRAEDTAVYYCTRTSITTVGMDVWGQGTTVTVSS
VL: DIQMTQSPSSLSASVGDGVTITCRASQSISTYLNWYQQRPGKAPKLLIYGASSLQSGVPSRFSGSGSGTDFTLTISSLQREDFATYYCQQSFSTPWTFGQGTRVEIK
notes: HC as printed runs into CH1; HC amber q (LqMNS) written as Q
As to B13, the “ELISA (T/B)” value came to 14.1 T/B.

B14: M9-G08 (Fab, V domains shown)
VH: EVQLLESGGGLVQPGGSLRLSCAASGFTFSYYTMLWVRQAPGKGLEWVSSIYPSGGFTMYADSVKGRFTISRDNSKNTLYLQMNSLRAEDTAVYYCARVDTAMAMIDYWGQGTLVTVSS
VL: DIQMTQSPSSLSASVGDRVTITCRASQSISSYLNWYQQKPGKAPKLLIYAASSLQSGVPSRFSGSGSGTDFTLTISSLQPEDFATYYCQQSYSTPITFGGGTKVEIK
notes: HC as printed runs into CH1
For B14, the “ELISA (T/B)” value was 4.8 T/B.

B15: M9-H04 (Fab, V domains shown)
VH: EVQLLESGGGLVQPGGSLRLSCAASGFTFSAYTMWWVRQAPGKGLEWVSSIWPSGGSTFYADSVKGRFTISRDNSKNTLYLQMNSLRAEDTAVYYCARTYDSSAGEVDYWGQGTLVTVSS
VL: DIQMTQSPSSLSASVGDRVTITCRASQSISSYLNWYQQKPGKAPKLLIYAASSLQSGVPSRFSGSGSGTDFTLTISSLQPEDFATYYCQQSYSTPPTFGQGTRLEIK
notes: HC as printed runs into CH1
Regarding B15, the “ELISA (T/B)” value came out at 16.1 T/B.

B16: M9-E04 (Fab, V domains shown)
VH: EVQLLESGGGLVQPGGSLRLSCAASGFTFSEYDMMWVRQAPGKGLEWVSSIGSSGGMTYYADSVKGRFTISRDNSKNTLYLQMNSLRAEDTAVYYCARDQVAAAAIDYWGQGTLVTVSS
VL: DIQMIQSPSSLSASVGDRVTITCRASQSISGYLNWYQQRSGKAPKLLIFAASNLQTGVPSRFSGSGSGTDFTLTINNLQPEDFATYYCQQSHTPPKTFGPGTKVDIK
notes: HC as printed runs into CH1
For the molecule B16, the “ELISA (T/B)” value was 18.8 T/B.

B17: M9-F09 (Fab, V domains shown)
VH: EVQLLESGGGLVQPGGSLRLSCAASGFTFSSYPMGWVRQAPGKGLEWVSRISSSGGMTIYADSVKGRFTISRDNSKNTLYLQMNSLRAEDTAVYYCARDDWNVGMDVWGQGTTVTVSS
VL: DIQMTQSPSSLSASVGDRVTITCRASQSISSYLNWYQQKPGKAPKLLIYAASSLQSGVPSKFSGSGSGTDYTLTISSLQPEDFATYYCQQTYTTPWTFGQGTKVEIK
notes: HC as printed runs into CH1; (as printed for M28-E01)
Take B17: the “ELISA (T/B)” value came out at 7 T/B.

B18: M10-A03 (Fab, V domains shown)
VH: EVQLLESGGGLVQPGGSLRLSCAASGFTFSPYPMQWVRQAPGKGLEWVSSISSSGGMTEYADSVKGRFTISRDNSKNTLYLQMNSLRAEDTAVYYCARDDYGGKGGAFDIWGQGTMVTVSS
VL: DIQMTQSPSSLSASVGDRVTITCRASQRISFYLNWFQQKPGKAPNLLIYGASSLQSGVPSRFSGSGSGTDFTLTISSLQPKDFGTYYCQQTFSTPNTFGQGTKLEIK
notes: HC as printed runs into CH1
With B18, the “ELISA (T/B)” value was 33.7 T/B.

B19: M10-E06 (Fab, V domains shown)
VH: EVQLLESGGGLVQPGGSLRLSCAASGFTFSLYRMFWVRQAPGKGLEWVSSIWSSGGPTMYADSVKGRFTISRDNSKNTLYLQMNSLRAEDTAVYYCAREYPSTYYFDYWGQGTLVTVSS
VL: DIQMTQSPSSLSASVGDRVTITCRASQSISTYLNWYQQKPGKAPKLLIYGASSLQSGVPSRFSGSGSGTDFTLTISSLQPEDFTIYYCQQSYSDPYTFGQGTKLDIK
notes: HC as printed runs into CH1
Regarding B19, the “ELISA (T/B)” value came to 32.8 T/B.

B20: M10-F09 (Fab, V domains shown)
VH: EVQLLESGGGLVQPGGSLRLSCAASGFTFSNYDMMWVRQAPGKGLEWVSYISPSGGFTRYADSVKGRFTISRDNSKNTLYLQMNSLRAEDTATYYCAKDIYYYNWGPSHYFDSWGQGTLVTVSS
VL: DIQMTQSPSSLSASVGDRVTITCRASQTIDDDLIWYQQKPGRAPKLLIYAASSLQSGVPSRFSGSGSGTDFTLTITSLQPEDFATYYCQQSYNIPRTFGQGTKLESK
notes: HC as printed runs into CH1
Consider B20, for which the “ELISA (T/B)” value was determined as 4.8 T/B.

B21: M11-A10 (Fab, V domains shown)
VH: EVQLLESGGGLVQPGGSLRLSCAASGFTFSNYWMMWVRQAPGKGLEWVSGIGSSGGFTSYADSVKGRFTISRDNSKNTLYLQMNSLRAEDTAVYYCAKGSYSDYGVFESWGQGTLVTVSS
VL: DIQMTQSPSSLSASVGDRVAITCRASQSIDTYLNWYQQKPGKAPKLLIYDASNLEIGVPSRFSGSGSGTDFTFIINSLQPEDVATYYCQHYLYAPYSFGQGTKLEIK
notes: HC as printed runs into CH1; also called Ml1-A10
Consider B21, for which the “ELISA (T/B)” value came out at 25 T/B.

B22: M10-D11 (Fab, V domains shown)
VH: EVQLLESGGGLVQPGGSLRLSCAASGFTFSAYPMNWVRQAPGKGLEWVSRISSSGGNTSYADSVKGRFTISRDNSKNTLYLQMNSLRAEDTAVYYCALGYLGYWGQGTLVTVSS
VL: not shown
notes: HC as printed runs into CH1
In the case of B22, the “ELISA (T/B)” value was 6.4 T/B.
